# Source: the supplement of paper PMC10567573
# B1: FANCE (parent)
# chain: AQVLMLGQILELPWKEETFLVLQS
# Variants of: B1
# Assay: protein stability index of a GFP-peptide fusion (GPS, HEK-293T) (PSI 1-6); higher = more stable
# Conditions: c terminus: a fixed tail appended
# 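Also: lentivirally expressed fusions sorted by FACS into six bins by GFP to DsRed ratio, PSI derived from sequencing read proportions per bin multiplied by bin number.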
row,Variant,protein stability index
1,AQVLWLGQILELPWKEETFLVLQS [M5W],2.56
2,AQVLVLGQILELPWKEETFLVLQS [M5V],3.14
3,AQVLLLGQILELPWKEETFLVLQS [M5L],2.3
4,AQVLNLGQILELPWKEETFLVLQS [M5N],2.12
5,AQVLMLGQILELPWKEETFVVLQS [L20V],3
6,AQVLMLGQILELPWKEETFSVLQS [L20S],2.3
7,AQVLMLGQILELPWKEETFCVLQS [L20C],1.48
8,AQVLMLGQILELPWKEETFWVLQS [L20W],2.87
9,AQVLMLGQILELPWKEETFDVLQS [L20D],1.6
10,AQVLMLGQILELPWKEETFEVLQS [L20E],2.24
11,AQVLMLGQILELPWKEETFRVLQS [L20R],2.61
12,AQVLMLGQILELPWKEETFHVLQS [L20H],2.03
13,AQVLMLGQILELPWKEETFNVLQS [L20N],2.56
14,AQVLMLGQILELPWKEETFYVLQS [L20Y],3.73
15,AQVLMLGQILELPWKEETFLVSQS [L22S],1.13
16,AQVLMLGQILELPWKEETFLVTQS [L22T],1.61
17,AQVLMLGQILELPWKEETFLVYQS [L22Y],2.56
18,AQVLMLGQILELPWKEETFLVAQS [L22A],2.06
19,AQVLMLGQILELPWKEETFLVQQS [L22Q],2.08
20,AQVLMLGQILELPWKEETFLVGQS [L22G],3.21
21,AQVLMLGQILELPWKEETFLVRQS [L22R],1.63
22,AQVLMLNQILELPWKEETFLVLQS [G7N],2.85
23,AQVLMLQQILELPWKEETFLVLQS [G7Q],2.19
24,AQVLMLFQILELPWKEETFLVLQS [G7F],2.22

row,Variant,protein stability index
1,AQVLMLRQILELPWKEETFLVLQS [G7R],4.09
2,AQVLMLPQILELPWKEETFLVLQS [G7P],2.51
3,AQVLMLWQILELPWKEETFLVLQS [G7W],3.13
4,AQVLMLCQILELPWKEETFLVLQS [G7C],2.25
5,AQVLMLIQILELPWKEETFLVLQS [G7I],3.43
6,NQVLMLGQILELPWKEETFLVLQS [A1N],2.31
7,GQVLMLGQILELPWKEETFLVLQS [A1G],2.51
8,TQVLMLGQILELPWKEETFLVLQS [A1T],4.61
9,MQVLMLGQILELPWKEETFLVLQS [A1M],3.16
10,HQVLMLGQILELPWKEETFLVLQS [A1H],1.25
11,KQVLMLGQILELPWKEETFLVLQS [A1K],1.56
12,CQVLMLGQILELPWKEETFLVLQS [A1C],2.51
13,WQVLMLGQILELPWKEETFLVLQS [A1W],2.62
14,RQVLMLGQILELPWKEETFLVLQS [A1R],1.83
15,VQVLMLGQILELPWKEETFLVLQS [A1V],3.34
16,AQVLMLGQILELPWKEETFLELQS [V21E],2.57
17,AQVLMLGQILELPWKEETFLALQS [V21A],3.08
18,AQVLMLGQILELPWKEETFLCLQS [V21C],3.25
19,AQVLMLGQILELPWKEETFLSLQS [V21S],2.05
20,AQVLMLGQILELPWKEETFLKLQS [V21K],2.9
21,AQVLMLGQILELPWKEETFLWLQS [V21W],2.4
22,AQVLMLGQILELPWKEETFLQLQS [V21Q],2.54
23,AQVLMLGQILELPWKEETFLRLQS [V21R],3.15
24,AQVLMLGQILELPWKEETFLTLQS [V21T],3.45

row,Variant,protein stability index
1,AQVLMLGQILELPWKEETFLHLQS [V21H],1.77
2,AQGLMLGQILELPWKEETFLVLQS [V3G],1.85
3,AQRLMLGQILELPWKEETFLVLQS [V3R],2.92
4,AQYLMLGQILELPWKEETFLVLQS [V3Y],2.82
5,AQSLMLGQILELPWKEETFLVLQS [V3S],1.95
6,AQQLMLGQILELPWKEETFLVLQS [V3Q],1.72
7,AQMLMLGQILELPWKEETFLVLQS [V3M],2.09
8,AQPLMLGQILELPWKEETFLVLQS [V3P],1.56
9,AQVLMLGQILELPWAEETFLVLQS [K15A],2.06
10,AQVLMLGQILELPWPEETFLVLQS [K15P],4.32
11,AQVLMLGQILELPWWEETFLVLQS [K15W],2.14
12,AQVLMLGQILELPWFEETFLVLQS [K15F],2.52
13,AQVLMLGQILELPWLEETFLVLQS [K15L],2.82
14,AQVLMLGQILELPWVEETFLVLQS [K15V],5.16
15,AQVLMLGQILELPWHEETFLVLQS [K15H],3.52
16,AQVLMLGQILELPWMEETFLVLQS [K15M],2.91
17,AQVLMLGQILELPWSEETFLVLQS [K15S],2.58
18,AQVLMLGQILELPWEEETFLVLQS [K15E],2.32
19,AQVLMLGQILELPWYEETFLVLQS [K15Y],5.17
20,AQVLMLGQILELPWDEETFLVLQS [K15D],2.01
21,AQVLMLGQILELPWNEETFLVLQS [K15N],1.94
22,AQVLMLGQILELPWKEELFLVLQS [T18L],2.16
23,AQVLMLGQILELPWKEEFFLVLQS [T18F],3.58
24,AQVLMLGQILELPWKEEAFLVLQS [T18A],1.7

row,Variant,protein stability index
1,AQVLMLGQILELPWKEESFLVLQS [T18S],2.84
2,AQVLMLGQILELPWKEEQFLVLQS [T18Q],2.45
3,AQVLMLGQILELPWKEERFLVLQS [T18R],4.64
4,AQVLMLGQILELPWKEEPFLVLQS [T18P],1.79
5,AQVLMLGQILELPWKEEYFLVLQS [T18Y],2.29
6,AQVLMLGQILELPWKEETFLVLQT [S24T],2.51
7,AQVLMLGQILELPWKEETFLVLQL [S24L],3.04
8,AQVLMLGQILELPWKEETFLVLQN [S24N],3.35
9,AQVLMLGQILELPWKEETFLVLQE [S24E],3.98
10,AQVLMLGQILELPWKEETFLVLQW [S24W],3.86
11,AQVLMLGQILELPWKEETFLVLQD [S24D],1.83
12,AQVLMLGQILELPWKRETFLVLQS [E16R],1.97
13,AQVLMLGQILELPWKYETFLVLQS [E16Y],3.33
14,AQVLMLGQILELPWKKETFLVLQS [E16K],2.78
15,AQVLMLGQILELPWKNETFLVLQS [E16N],2.23
16,AQVLMLGQILELPWKFETFLVLQS [E16F],4.03
17,AQVLMLGQILELPWKGETFLVLQS [E16G],2.03
18,AQVLMLGQILELPWKEYTFLVLQS [E17Y],5.43
19,AQVLMLGQILELPWKEDTFLVLQS [E17D],3.79
20,AQVLMLGQILELPWKEMTFLVLQS [E17M],2.08
21,AQVLMLGQILELPWKERTFLVLQS [E17R],1.48
22,AQVLMLGQILELPWKEQTFLVLQS [E17Q],3.48
